From patent US20200121703A1 (CLEVELAND CLINIC FOUNDATION, published 2020)

Target: T1, PAG (protein associated with glycosphingolipid-enriched microdomains) (UniProt Q9NWQ8 1-432)
T1 construct: Endogenous protein of human tumor cell lines, probed by immunoblot in the CD55 immunoprecipitate
T1 sequence (looked up): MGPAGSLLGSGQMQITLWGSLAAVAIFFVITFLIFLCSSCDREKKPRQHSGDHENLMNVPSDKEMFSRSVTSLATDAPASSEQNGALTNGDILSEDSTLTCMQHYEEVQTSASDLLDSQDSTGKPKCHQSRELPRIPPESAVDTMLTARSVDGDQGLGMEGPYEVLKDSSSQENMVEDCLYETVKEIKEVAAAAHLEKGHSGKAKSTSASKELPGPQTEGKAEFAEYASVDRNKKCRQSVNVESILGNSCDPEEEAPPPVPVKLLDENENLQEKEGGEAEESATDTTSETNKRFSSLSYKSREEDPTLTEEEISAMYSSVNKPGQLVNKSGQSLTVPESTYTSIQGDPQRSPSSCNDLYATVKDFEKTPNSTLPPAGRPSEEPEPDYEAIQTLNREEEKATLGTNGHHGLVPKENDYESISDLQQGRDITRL
Test: co-immunoprecipitation with anti-CD55 antibody from endometrioid CSC lysates, immunoblot for PAG
Method: Membranes were incubated overnight at 4° C. with primary antibodies against CD55 (1:1000) (Santa Cruz, Calif.), CD59 (1:1000) (Abcam), CD46 (1:1000) (Santa Cruz, Calif.), NANOG (1:500) (Cell Signaling), SOX2 (1:500) (Cell Signaling), OCT4 (1:500) (Cell Signaling), ROR2 (1:1000) (BD Biosciences), pJNK1 (1:1000) (T183/Y185) (Cell Signaling), JNK1 (1:1000) (Cell Signaling), p-c-Jun (1:1000) (S73) (Cell Signaling), p-c-Jun (1:1000) (S63) (Cell Signaling), c-Jun (1:1000) (Cell Signaling), pLCK (Y394) (1:1000) (BD Biosciences), LCK (1:1000) (Santa Cruz, Calif.), LIME (1:1000) (Invitrogen), PAG (1:1000) (Genetex), and (3-actin (1:1000) (Cell Signaling). Secondary anti-mouse or anti-rabbit IgG antibodies conjugated to horse radish peroxidase (HRP) (1:2000) (Thermo, Rockford, IL) were used and immunoreactive bands were visualized using the ECL plus from Pierce (Rockford, Ill., USA).
The lysates were spun at 12,000xg for 15 min at 4° C. Supernatants were incubated with rabbit anti-human CD55 primary antibody (SantaCruz, Calif.) and the corresponding antibody control for 1 hour at 4° C. Protein A/G agarose beads (Santa Cruz, Dallas, Tex.) were added to lysates which were subsequently incubated on a rotating mixer overnight at 4° C. The beads were then washed 3-4 times at 4° C., and Laemmli sample buffer was added to the beads and boiled for 5 minutes. […]

B1: CD55 (decay accelerating factor) (other, human, UniProt P08174 35-353, looked up)
chain: DCGLPPDVPNAQPALEGRTSFPEDTVITYKCEESFVKIPGEKDSVICLKGSQWSDIEEFCNRSCEVPTRLNSASLKQPYITQNYFPVGTVVEYECRPGYRREPSLSPKLTCLQNLKWSTAVEFCKKKSCPNPGEIRNGQIDVPGGILFGATISFSCNTGYKLFGSTSSFCLISGSSVQWSDPLPECREIYCPAPPQIDNGIIQGERDHYGYRQSVTYACNKGFTMIGEHSIYCTVNNDEGEWSGPPPECRGKSLTSKVPPTVQKPTTVNVPTTEVSPTSQKTTTKTTTPNAQATRSTPVSRTTKHFHETTPNKGSGTTS
modifications: GPI anchor (glycophosphatidylinositol-anchored to lipid rafts)
notes: Endogenous protein pulled down from 0.5% Triton X-100 cell lysates
binding result: no binding
